Source: the DeepSol protein solubility set

Assay: soluble on expression in E. coli; label from the status in PepcDB or PDB records
With “MGSDKIHHHHHHVKFFVIGDVTVDHLYHLDRLPAPGEEVAPTRATMKPGGAGGTISVTLARLGHSVTLAARVGDDPFAEYALASVRESGVLQAAIQIDPEHLTSTITVMQTPDGQRAMISDGAANRQLDPAKLKKKDIEGADALIVSAYSLTEGPQREYTLKAIETAKKAKKPVPVFIDLGTGAVNKVGTDLIENVIGADYLTLNQHELLALTDTTSISAALAQLGDAGARRVIVKVGRMGSIVWTPTETELVDPIKPEGRVVDSTGAGDTFTAAFAHAVLTGHSLPQAARIGNAAGALAATRVGAQARPITLADLEAALAR” the “soluble on expression in E. coli” value was “not soluble”.
With “MSLKWSAIPFQTLYRSIESGEFDFDLFKEVLPDLQNLNLNTDKLKNNASRSQLEKGEIELSDGSTFKVNQEFIFEAISLSDELNLDEIVACELILSGDTTANNGKVQYFLRRQYILQIVSFIVNCFHEDTELYQELIKNGALVSNILSAFKFIHTQLSEIKQQINKAQILENYNALFQQNIKFRRDFLLREYDILSQILYGLVDKGAIMKNKDFILSLLHHVSELDSNDFFIIYYTPAFFHLFASLRVLPDADVKLLHSQFMKDLKDDSIYTKPVKVALIFIFFAYFIGWCKEDPKRRADTMDFKTDVDEPMTSAVELGAIEQILIFAADTSIVEQDKSMELFYDIRSLLERHIPRLIPKQLLDDEKIFSQTTNSTYNPASATDNMSGRGLWNPSYPGMMSTTGTARLNSMPNNVNEYSYTTIVLSDQTQEFFLSSFDDVLQTIITDCAFLLTKIKDAEEDSLLSGEDLTLDDISLKADLERFFLSIYFFYASRPEYSCTFWSDKESNAYGFIEWCSRCNDNLMRSCFYLMVSSLSFGPENALNVYHYFGENSSISWKNIAQCLSDYTKKISNFNSSLHKRQQFSESTHNDIDSTAVALEEGLNEEAVIFLSSLLTLVGSVTYQVDEDVKSSLSKVFSDVLFEFTKINTPLVGAAFKVISNLVPKLESSRTKFWSFLDSLIFKDSSLNYSSESYRNAFTNVLTKYSDVLGFLQLFHNLISIHSRENNSEYMVFGKLAFPTRLGQGYRKVGIWPYFDYIFNDILAHVDQIVDIRNKRAVQLPILKIIYTGLCSFDYSVILNSIPAAANLDALVDCENFFNYVQECPAIPIFNYIFTEKIYKSIFNVVDVGVDQLSIELEGGKNQAELLQLAVKIINKVLDYQETYVEELFPIVKKHGKTDYFLPKNYSLHGLRSFYDAIFFNIPLVAHLGLYVGVDDQILATNSLRILAKLSERSNGSVASLSEGHHHHHH” the “soluble on expression in E. coli” value was “soluble”.
For “MVSDEDELNLLVIVVDANPIWWGKQALKESQFTLSKCIDAVMVLGNSHLFMNRSNKLAVIASHIQESRFLYPGKNGRLGDFFGDPGNPPEFNPSGSKDGKYELLTSANEVIVEEIKDLMTKSDIKGQHTETLLAGSLAKALCYIHRMNKEVKDNQEMKSRILVIKAAEDSALQYMNFMNVIFAAQKQNILIDACVLDSDSGLLQQACDITGGLYLKVPQMPSLLQYLLWVFLPDQDQRSQLILPPPVHVDYRAACFCHRNLIEIGYVCSVCLSIFCNFSPICTTCETAFKISLPPVLKAKKRN”, the “soluble on expression in E. coli” value was “soluble”.
For “MSLKEVIFVLLNEFADWEGAFIAACLNQGVMPGSPVPYKVKTLSITKEPVSSIGGFRVLPDYDLKDMPEDYAGLILIGGMSWFSPEAELIAPLIEKAIKDKKVVGGICNASVFLAMHGFLNNVKHTSNTIDYLKQHVGERYTGDSNYVDQQAVRDGKIITANGTGQLEFCREILYALEADTAEAIEKSYLFYKNGEGHHHHHH”, the “soluble on expression in E. coli” value was “soluble”.
In the case of “MGSDKIHHHHHHMIQTPVIVTFANQKGGVGKTTLCVTFANYLVAKGVRVLVIDCDFQHSIMKCRKADIKKYGEEQLPYEVWSYEPNNKVEMTSLVEKLHNDPEIDVVLIDSPGSLKAEGLVPIFVNSDIIVVPFHYDLVTIPSTASFLLFLDRLRQAVGERMKAQLFIIPNLNDNRVGKRSELILWDNTRETFSNYGYVTGKIPRRADMERFSTIAALDMQYRYVSSVFDKIYFSIFDKTGPIREMELSGIQLTENLYPKSGKKKYQAETSTHIALDEAEDEEQENNSEHQHNQ”, the “soluble on expression in E. coli” value is reported as “not soluble”.
In the case of “MGSDKIHHHHHHMEIKETYDFSSIVDLWNKNIGTVYPMNLELFKQNYINDRQRKKIMGAFNGEILIGFVIYKQWTYKSGSLKPNHKIGYINSIIVDINFRHQGIGTKLLDAAEEELINSGVKILRCGSDTYHFFPGIPLECLPSEEFFLVRGYKMQDYFYDLIGDVSKVDFKKPSIKDGFKVNVMKPEDRKGLFEFLEKSFSGRWLEEFIEFFQVGMKERDIVLIKYKTSVIGFSHIYDNKSSFIGPPIYWKALLGHNYGGLGPIGIDKTYRKQGLGRLLLYESLQILKKREVKKMVIDWTEKDIINFYGRFNFMPWKAYRKATKEVKDGKG”, the “soluble on expression in E. coli” value is reported as “not soluble”.
With “MEIIRSNFKINLHKVYQAIEEADFFAIDGEFSGISNGPSVTALTSGFDTPEERYQKLKKHSMDFLLFQFGLCAFKYDHTDSKHVTKSFNFYVFPKPFSRSSPDVKFVCQSSSIDFLASQGFDFNKVFCSGIPYLNQEEERQLREQFDEKRSQANGAGALAKCPVTIPEDQKKFIDQVIEKIEDFLQSEEKRSLELDPCTGFQRKLIYQTLSWKYPKGIHVETLETDKKERHIVISKVDEEERKRREQEKYTKEQEELNDAVGFSRVIHAIANSGKLVVGHNMLLDVMHTIHQFYCPLPADLNEFKEMAICVFPRLLDTKLMASTQPFKDIINNTSLAELEKRLKETPFDPPKVESAEGFPSYDTASEQLHEAGYDAYITGLCFISMANYLGSLLSPPKMCVSARSKLIEPFFNKLFLMRVMDIPYLNLEGPDLQPKRDHVLHVTFPKEWKTSDLYQLFSAFGNIQISWIDDTSAFVSLSQPEQVQIAVNTSKYAESYRIQTYAEYVGKKQKGKQVKRKWTEDSWKEVDRKRPHMQGPCYHSNSFTAAGMLGKRTLSPDPREAALEDRESEEVSDSELEQTDSCTDPLPEGRKKSKKLKRMKKELSLAGSVSDSPAVLFEVPDTW” the “soluble on expression in E. coli” value was “soluble”.
With “MAHHHHHHMSAAVQTLATVMATDMNYYAGDPTVLAADAASSRVEQILQSSRSDQLTARVAIHAQLREAFKNVDVQQRFKPFLSDGENIQMYVQDAKARARFFSQKQQELQHDILQSEEQRQLKEAHGELAAWERENAVLLRHQMFMTYMPSQALLLESAATVALYRQYATLEEGQYTSDSSDGEVPMMLKKMGGKTYFTQSEQPFEVDTHNKMFSQQVLQNKRVEYEQMREKAAQLRQALEECPTVKRLEAFVELRNDIFVAYGIDRLASLCSRKDKEMGNPNEGGVDASLHGLPADDEYVSSSRVAQYSLPKIVDAAYKNYLNILSMDDWDAMMKHTGSNARAVMEKIKPMKDKETFRYWFLSCITADVPQMGPNKIVGQKATTLEDYKKFWAPQKSNYVPSLTSNRSIFGSKVADRRGLPHFLILSPVTYRYRENNDPNAVKTGTMDLMVYDATNEKVLLMLTNSSDERRPRAAFLKAQEERYRFAAVVRSAITYENQYHGFECEGTVAEYFFDAQEGPEENYYCIMAPHRVYSKQPNKVQVPMKALRPFTSCPPRYFVLGSNWGVSAGTRRNPYPASYAHVELNENAVGLSNVIPDGFISSKVLPQLLSHAEGVQKLEEEMKRQQRAELERPQLSPRALTRASRGGAATPRPSTAPPSPENNAADILADENMRGPGEEEDPLSPLVPNEVLRPVRDQLLKQRRSWQSPAYIAFRARDSDLRRLPAVKDGHLRTPLNVFNDLMREKHGEDAPPASAPSSARRSNGPPSSRTASVACT” the “soluble on expression in E. coli” value was “not soluble”.
For “MSLIQLRPCPKSYTRDQDKATTPAETVRRVRERLASLDISILAETRRVDVGRLGIPVFLSVCGADARAVMPTRKQMGKGASLEQAQASALMELMERYSFFTFWRDMPGMVEATWSEARNRFGDALIPVDEILHSVHDTLSPDDAVRALDLWRWKFFPATDITHGREVWLPLDWFKKLGEFNGSSAGNTEEESILQGSCELVERHVCCLIDRTQPELPTIDPASLDDPVLLELAAAFERNGIRLVLKDFSMGMPVPTVGAIAWDPATFPERSEIVYTAGTSSSPVKAAIRAVTEVAQLAGDFCTGACYEASGLSKYESLDDIAWLVAGPVVALDTLPSVETDDIRDELAALCDGLAATGHTLYSVSTMNPDVGVNTHYNIVPGFHFRERDRNASLGLFIGRILSEEADAGTALAGLSVLEELYPGAHFLPFFKGMLALRAESHHEAISFFEQAEPLQPEADSRGLAAFYGAYVRTLLTDWQGALPGLDRAVTECPEMKEYFNLRGVCHFKLGDYAQAAQNFAQVLHIDKGAVVDLANLGLCHKFMGDTEKAEELLSAALEIDPGLDFARRHLDEMREGHHHHHH”, the “soluble on expression in E. coli” value was “soluble”.
For “MGSDKIHHHHHHMELKLERHPANPILEPSPYFLWESRFVFNPAVVYDGELFHLLYRAQGEDMVSRIGYAVSTDGIHFNKFEKPVFAPKSDDELYGVEDPRITKIGDEYYMVYTAYSPRGVRIAMASTKNFITWKRYGVVIPEVDNKDAALFPEKINGKYVMFHRIPPDMWLAFSDDLVHWDNFVKIASPRPGMWDDLKIGVGAPPIKTEYGWLVLYHGVQNTGTSRPIYRLGFMLLDLEDPTKVIKRSKEPILEPEEDWEKFGGVPNVVFSDAMIEYNGYYYVYYGAADNCIALATIPVEKVMKWCRE”, the “soluble on expression in E. coli” value was “not soluble”.
In the case of “MAEPGGHEGPASTQRAKVCETHTAMVFFVEDRVYKRKKPVDLGFLDYTTRSSRRAVCEREIELNRRFAPDVYLGLGELRTPGEQEAEPLVVMRRMPDDRRLSHLVRTGAPVADDLRAVARHLAAWHSAAPRGPAIAEQGTRDALAARWEASFTQVDVLAAKGPTRDEAGEVERLVRRYLAGRKPLFGLRIEQGRVLDGHGDLLADDVFCLGDGPRILDCLEFDDALRYVDGLDDAAFLAMDLESLGAPESAAFFLAQYGEYSGDPAPPSLWHHYVAYRAFVRAKVSLIQARQGAPGAHATARRLVRMALRHLRASAVGLTLVAGLPGTGKSTLSGALADRLGAVLLSSDRLRKEMAGLSPQQTASADYGEGLYTPEWTARTYAELLDRAAALLALGESVVLDATWIDSAQREAARHTAESAGADLVALHCHVPDDVTAARLSTRAPGASDADLGVAEAMAAEEQPWSGAVGVDTGGSLEAAVGQALAAVRPWGSDQAKVFRRPYMEPDLEHHHHHH”, the “soluble on expression in E. coli” value is reported as “not soluble”.
In the case of “MSLTRICIVGAGAVGGYLGARLALAGEAVNVLARGATLQALQTAGLRLTEDGATHTLPVRATHDAVALGEQDVVIVAVKAPALESVAAAIAPLIGPGTCVVVAMNGVPWWFFDRPGPLQGQRLQAVDPHGRIAQAIPTRHVLGCVVHLTSATASPGHIRHGNGRRLILGEPAGGASPRLASIAALFGRAGLQAECSEAIQRDIWFKLWGNMTMNPVSVLTGATCDRILDDPLVSAFCLAVMAEAKAIGARIGCPIEQSGEARSAVTRQLGAFKTSMLQDAEAGRGPLEIDALVASVREIGRHVGVPTPQIDTLLGLVRLHAQTRGLYEGHHHHHH”, the “soluble on expression in E. coli” value is reported as “soluble”.
With “VKEIIDGFLKFQREAFPKREALFKQLATQQSPRTLFISCSDSRLVPELVTQREPGDLFVIRNAGNIVPSYGPEPGGVSASVEYAVAALRVSDIVICGHSNCGAMTAIASCQCMDHMPAVSHWLRYADSARVVNEARPHSDLPSKAAAMVRENVIAQLANLQTHPSVRLALEEGRIALHGWVYDIESGSIAAFDGATRQFVPLAANPRVCAIPLRQPTAA” the “soluble on expression in E. coli” value was “soluble”.
For “MGSDKIHHHHHHMSQQLTFADSEFSSKRRQTRKEIFLSRMENLLPWSQLLDVIEPFYPKVGNGRRPYPLETMFRIHCMQQWYSLSDEATEDALYEIASMRQFALLSLDKAIPDRTTIMNFRHLLEKHKLTRKLFKTVNQWLSDSGVMMTQGTLVDATIIEAPSSTKNKNNERDPDMHQTKKGNQWHFGMKAYIGVDAKSGLTHTLVTTAANEHDLNQLDNLLHGEEEFVSGDAGYQGAQKREELKDTNVEWLIAERPGKIRALKKRPRKNKTIINIEYLKASIRAKVEHPFRIIKCQFGFIKARYKGLMKNDSQLAMLFTLANLFTVDQMLRRQPRSV”, the “soluble on expression in E. coli” value was “not soluble”.
